Experimental data taken from publication PMC9742495.

B1: hrpG motif (dsDNA)
DNA 1: TTTTGTCCTGGCGTCGGGCGCCAGGCGTCGGCGTC
DNA 2: GACGCCGACGCCTGGCGCCCGACGCCAGGACAAAA
B2: Sar probe (dsDNA)
DNA 1: GGCGTCGAGCGCCAGGC
DNA 2: GCCTGGCGCTCGACGCC
B3: hrpX motif (dsDNA)
DNA 1: GCTGCATACAATCGTGTGCGCCAGCGAGCTCGGCG
DNA 2: CGCCGAGCTCGCTGGCGCACACGATTGTATGCAGC
B4: Sar mutated probe (dsDNA)
DNA 1: GTTCCATCTACTTCACC
DNA 2: GGTGAAGTAGATGGAAC

Target: Sar (PXO_RS20790) (Xanthomonas oryzae pv. oryzae PXO99A, UniProt A0A0K0GPT9 1-242)
Assay: EMSA

Question: Does B1 bind?
Answer: binds

Question: Does B2 bind?
Answer: binds

Question: Does B3 bind?
Answer: binds

Question: Does B4 bind?
Answer: no binding
